From article PMC12377726 (Proceedings of the National Academy of Sciences of the …, 2025)

Biological target: eOD-GT8 (engineered outer domain germline-targeting version 8), monomer (HIV-1 gp120 engineered outer domain, …)

Binder | binding result
G001_gp1_V08_VRC01c_151 (antibody, V domains shown) VH: QVQLVQSGAEVKKPGASVKVSCKASGYTFTDYYMHWVRQTPGQGLEWMGWMNPKSGGTNYALQFQGRVTMTRDTSISTAYMELSRLRSDDTAIYYCATKAYTNRAFDIWGQGTMVTVSS VL: EIVLTQSPGTLSLSPGERATLSCRASQSVNSNSLAWYQQKPGQAPRLLIFAAYTRATGIPDRFSGSGSGTDFTLTISRLEPEDFAVYYCQQYDTFGQGTKVEIK | binds
G001_gp1_V08_VRC01c_2021-0072 (antibody, V domains shown) VH: QVQLVQSGAEVKKPGASVKISCKASGYTFSGYYMHWVRQAPGQGLEWMGWINPNSGGTNYAQKFQDWVTMTRDTSISTVYMELSRLRSDDTAVYYCAREWCSGGTCYSGPTFDFWGQGTLVTVSS VL: EIVLTQSPGTLSLSPGERATLSCRASQSVSSNYLAWYQQKSGQAPRLLIYGASSRATGIPDRFSGSGSGTDFTLTISRLEPEDFAVYYCQHYETFGQGTKVEIK | binds
G001_gp1_V08_VRC01c_2021-0059 (antibody, V domains shown) VH: QAQLMQSGAEVKKPGASVKVSCKASGYTFTDYYMHWVRQAPGQGLEWMGWINPNSGGTNYAQKFQGWVTMTRDTSISTAFMELSRLRSDDTAVYFCATTNRYTSTWLFDYWGQGTLVTVSS VL: EIVLTQSPGTLSLSPGERATLSCRASQSVSSSYLAWYQQKPGQAPRLLIYGASNRATGIPDRFSGSGSGTDFTLTISRLEPEDFAVYYCQQYESFGQGTKLEIK | binds
G001_gp1_V08_VRC01c_2021-0062 (antibody, V domains shown) VH: QVQLVQSGAEVKKPGASVKVSCKASGYTFTGYYIHWVRQAPGQGLEWMGWINPNSGGTNYAQEFQDWVTMTRDTSISTAYMELSRLSSDDTAVFYCARAKYYDAWSGYYFDFWGQGTLVTVSS VL: DIQMTQAPSTLSASVGDRVTITCRASETTSSWVAWYQQKPGKAPKVLIYDASSLQSGVPSRFSGSGSGTEFTLTISSLQPDDFATYYCQQYNTFGGGTKVEIK | binds
G001_gp1_V08_VRC01c_149 (antibody, V domains shown) VH: QVQLVQSGAEVKKPGASVKVSCKTSGYTFTDYYMHWVRQAPGQGLEWMGWINPNSGGTNYAQKFQGRVTMTRDTSIRTVYMELSWLRSDDTAVFYCARHYRSSGWDFDYWGQGTLVTVSS VL: DIVLTQSPDSLTVSLGERATINCKSSPSGLYSSNNKNYLTWYQQKPGQPPKLLIYWASTRESGVPDRFSGSGSGTDFTLTISSLQAEDVAVYYCQQYETFGGGTKVEIK | binds
G001_gp1_V08_VRC01c_2021-0065 (antibody, V domains shown) VH: not shown VL: DIQMTQSPSSLSASVGDRVTITCQARHDISKYLNWYQQKPGKAPKLLIYDASDLETGVPSRFSGSGSGTDFTFTISSLQPEDIATYYCQQYDSFGGGTRVEIK | binds
G001_gp1_V08_VRC01c_2021-0066 (antibody, V domains shown) VH: QVQLVQSGAEVKKPGASVKVSCKASGYTFTGYYMHWVRQAPGQGLEWMGWINPNSGGTNYALKFQDWVTMTRDTSISTVYMELSRLRYDDTAVYYCARVNGDYGWNFDLWGRGTPVTVSS VL: not shown | binds
G001_gp1_V08_VRC01c_158 (antibody, V domains shown) VH: QVQLVQSGAEVKKPGASVKVSCKASGYTFTDYYMHWVRQAPGQGLEWMGWLNPNSGGTNYAQKFQDWVTMTRDTSIRTAYLELSRLKLDDTAIYYCARRIDYLDAFDIWGQGTMVTVSS VL: EIVLTQSPGTLSLSPGERATLSCRASQSVSRRYLAWYQQKTGQAPRLLIYGASSRATGIPDRFSGSGSGTDFTLTISRLEPEDFAVYYCQQYEMFGQGTKVEIK | binds
G001_gp1_V08_VRC01c_2021-0057 (antibody, V domains shown) VH: not shown VL: EIVLTQSPGSLSLSPGERATLSCRASQSGSSRYLAWYQQKPGQAPRLLIYGASNRATGIPNRFSGSGSGTDFVLTISRLEPEDFAVYYCQQYESFGPGTKVDIK | binds
G001_gp1_V08_VRC01c_2021-0073 (antibody, V domains shown) VH: QVQLVQSGAEVKKPGASVKVSCKASGYTFTGYYMHWVRQAPGQGLEWMGWINPNSGGTNYAQKFQDWVTMTRDTSISTAYMELRRLRSDDTAVYYCARGMSAKWFDSWGQGTLVTVSS VL: EIVLTQSPGTLSLSPGERATLSCRASQSFSNSYVAWYQQKPGQGPRLLIYGASSRATGIPDRFSGSGSGTDFTLTISRLEPEDFAVYYCQQYETFGQGIKLEIT | binds
G001_gp1_V08_VRC01c_2021-0063 (antibody, V domains shown) VH: QVHLVQSGAEVKKPGASVKVSCKASGYTFTGYYMHWVRQAPGQGLEWMGWINPNSGGTNYAQKFQGRVTVTRDTSISTAYMELSRLRSDDTAVYYCATQTHSSGWFVGNNWHFDLWGPGTLVTVSS VL: not shown | binds
G001_gp1_V08_VRC01c_153 (antibody, V domains shown) VH: not shown VL: DIQMTQSPSSLSASVGDRVTITCQATQDISNYLNWYQHKPGKAPKLLIYDASTLVTGVPSRFSGSGYGTDFTFTISSLQPEDIATYYCQEYLLFGGGTKVEIK | binds
G001_gp1_V08_VRC01c_147 (antibody, V domains shown) VH: QVQLVQSGAEVKQPGASVKVSCKASGYTFTGYYIHWIRQAPGQGLEWMGWINPKSGGTNYARNFQGRVTMTRDTSISTSYLLLSRLRSDDTAVYYCFRGAEGWLLKYWGQGTLVTVSS VL: DIQMTQSPSSLSASVGDRVTITCQASQDISNYLNWYQQKPGKAPKLLIYDASNLETGVPSRFSGSGSGTDFTFTISSLQPEDIATYFCQHYEFFGPGTKVDIK | binds
G001_gp1_V08_VRC01c_2021-0074 (antibody, V domains shown) VH: QVQLVQSGAEVKKPGASVKVSCKASGYTFTDYYMHWVRQAPGQGLEWMGWINPNSGGTNYAQKFQGWVTMTRDTSVSTAYMELRRLRSDDTAVYYCASGRGSSGWALDYWGQGTLVTVSS VL: DIQMTQSPSSLSASVGDRVTITCQASQDISNYLNWYQQKPGKAPKLLIYDASILETGVPSRFSGSGSGTEFTFTISSLQPEDIATYYCQQYEAFGQGTKLEIK | binds
G001_gp1_V08_VRC01c_2021-0053 (antibody, V domains shown) VH: not shown VL: DIQMTQSPSSLSASVGDRVTITCQASQDISNYLNWYQQKPGKAPKLLIYDASNLETGVTSRFSGSGSGTDFTFTISSLQPEDIATYYCQQYVTFGGGTKVEIK | binds
G001_gp1_V08_VRC01c_2021-0077 (antibody, V domains shown) VH: QVQLVQSGAEVKKPGASVKVSCKASGYTFTDYYMHWVRQASGQGLEWMGWINPNSGGTNYAQEFQGRVTMTRDTSISTAYMELSRLRYDDTAVYYCASGGYSRTWSFNIWGLGTMVTVSS VL: DIQMTQSPSSLSASVGDRVTITCQASQDISTYLNWYQQKPGKAPKLLIYDATNLETGVPSRFSGSGSGTDFTFTISSLQPEDIATYYCQQYETFGQGTRLEIK | binds
G001_gp1_V08_VRC01c_2021-0052 (antibody, V domains shown) VH: QVQLVQSGAEVKKPGASVKVSCKASGHTFSGYYMHWVRQAPGQGLEWMGWINPNSGGTNYAQKFQGRVTMTRDTSISTAYMELSRLRTYDTAVYYCARAYSSGWRFGWGQGTMVTVSS VL: DIQMTQSPSSLSASVGDRVTITCQASQDITKYLNWYQQKPGQAPKLLIYDASNLETGVPSRFSGSGSGTYFTFTISSLQPEDIATYYCQQYDNFGGGTKVEIK | binds
G001_gp1_V08_VRC01c_2021-0060 (antibody, V domains shown) VH: QVQLVQSGAEAKKPGASVKVSCKASGYTFTGYYMHWVRQAPGQGLEWMGWINPNSGGTNYAQKFQDWVTMTRDTSISTAYMELNRLRSDDTAVYYCATTGGTAVTAAHRWYFDLWGRGTLVTVSS VL: EIVLTQSPGTLSLSPGDRATLSCRASQSVSSSYLAWYQQKPGQAPRLLIYGAASRATGIPDRFSGSGSETDFTLTISRLEPEDSAVYYCQHYEGFGQGTRLEIK | binds
G001_gp1_V08_VRC01c_2021-0055 (antibody, V domains shown) VH: not shown VL: QSALTQPPSASGSPGQSVTISCTGTSSDVGGYNYVSWYQQHPGKAPKLMIYEVSKRPSGVPDRFSGSKSGNTASLTVSGLQAEDEADYYCSSYEVFGTGTKVTVL | binds
G001_gp1_V08_VRC01c_2021-0056 (antibody, V domains shown) VH: QVQLVQSGAEVKKPGASVTVSCKASGYTFTGYYMHWVRQAPGQGLEWMGWINPNSGGTNYAQKFQDWVTMTRDTSISTAYMELSRLRSDDTAVYYCATALGGSPGRIWSMDVWGQGTTVTVSS VL: QSALTQPASVSGSPGQSITISCTGTSSDVGGSNYVSWYQQHPGKAPKLLIYDVSNRPSGVSSRFSGSKSGNTASLTISGLQAEDEADYYCSSYEVFGTGTKVTVL | binds
G001_gp1_V08_VRC01c_146 (antibody, V domains shown) VH: QVQLVQSGAEVKKPGASVKVSCKASGYTFTDYYMYWVRQAPGQGLEWMGWINPNSGGTNYAQKFQGRVTMTRDTSITTAYMEVRRLRSDDTAMYYCARRPNPYSGYDFNAFDIWGQGTMVTVSS VL: DIQMTQSPSTLSASVGDRVTITCRASQSISNWLAWYQQKPGKAPKLLIYKTSNLEGGVPSRFSGSGSGTEFTLTISSLQPDDLATYYCQQYEMFGQGTKVEIK | binds
G001_gp1_V08_VRC01c_2021-0069 (antibody, V domains shown) VH: QVQLVQSGAEVKKPGASVKVSCKASGYTFTDYYIHWVRQAPGQGLEWMGWINPNSGGTNYAQKFQDWVTMTRDTSVGTAYMELSRLRSDDTAVYYCARGIWSSWHFDVWGRGTLVTVPS VL: DIQVTQSPSTLSASVGDRVTITCRASQSISNSLAWYQQKPGKAPNLLIYKASILESGVPSRFSGSGSGTEFTLTISSLQPDDFATYYCQQYETFGQGTKVEVT | binds
G001_gp1_V08_VRC01c_2021-0076 (antibody, V domains shown) VH: QVQLVQSGAEVKKPGASVKVSCKASGYTFTDYYIHWVRQAPGQGLEWMGWINPNSGGTNYARKFQGRVTMTRATSISTVYMELSRLRSDDTAVYYCARGYCTVGWCFDLWGRDTLVTVSS VL: DIQMTQSPSTLSASVGDRVTITCRASQSIGNWLAWYQQKPGRAPKLLIYQASSSESGVPSRFSGSGSGTEFTLTISSLQPDDFATYYCQQYETFGQGTKVEIK | binds
G001_gp1_V08_VRC01c_2021-0068 (antibody, V domains shown) VH: QVQLVQSGAEVKKPGASVKVSCKASGYTFTGYYLHWVRQAPGQGLEWMGWINPNSGGTNYAQKFQGWVTMTRTTSISTAYLELSRLRSDDTAVYYCARSVYFDSSGFYYGYWGQGTLVTVSS VL: DIQMTQSPSTLSASVGDRVTITCRASQSISSWLAWYQQKPGKAPKLLIYKASSLESGVPSRFSGSGSGTEFTLSISSLQPDDFATYYCQQYETFGQGTKVEIK | binds
G001_gp1_V08_VRC01c_2021-0075 (antibody, V domains shown) VH: QVQLVQSGAEVKKPGASVKVSCKASGYTFTDYYIHWVRQAPGQGLEWMGWINPNSGGPNYAQKFQDWVTMTRDTSISTAHMELSSLRSDDTAVYYCARGVAHTGFEFGYWGQGTLVTVSS VL: DIQMTQSPSTLSASVGDRVTITCRASQSISSWLAWYQQKPGKAPKLLIYKASTLESGVPSRFSGSGSGTEFTLTINSLQPDDFATYYCQQYETFGQGTKVEIK | binds
